From patent US9689040B2, “Selective inhibitors of tumor-initiating cells” (Children's Medical Center Corporation, priority 2011, dated 2017)

Tests used:
[1] = tested on: BPLER cells; test: Cell viability after drug treatment (CellTiterGlo / Trypan-Blue); type: cell-based, human; settings: 24 hr; for relative viability of BPLER and HMLER cells: CellTiterGlo (FIG. 14); for sensitivity of BPLER relative to HMLER cells (viability): increasing doses
[2] = tested on: BPE cells; settings: at the indicated dose
[3] = tested on: BPLER cells; test: Apoptosis (Annexin V/PI flow cytometry, caspase 3 and PARP cleavage immunoblot); type: cell-based, human; settings: 24 hours
Procedure: BPLER were used as control. […] The percentage of double-positive cells is indicated.
To further define factors underlying such properties of BPLER cells, we first determined the molecular mechanism by which proteasome inhibition affects the growth of these cells.
Immunoblot was performed as described^41. Primary antibodies were as follows: cleaved Caspase 3 (Cell Signaling, rabbit polyclonal, 1:1000), PARP1 (Santa Cruz, rabbit polyclonal, 1:500), MCL1 (Cell Signaling, Rabbit polyclonal, 1:1000), Bim (Santa Cruz, rabbit polyclonal, 1:500), Bik (Cell Signaling, rabbit polyclonal, 1:1000), Puma (Cell Signaling, rabbit polyclonal, 1:1000), Noxa (Calbiochem, mouse monoclonal, 1:500), Bid (Santa Cruz, rabbit polyclonal, 1:500), Bad (Santa Cruz, rabbit polyclonal, 1:500). Antibodies were diluted in 5% milk in TBS-T and incubated O.N. at 4° C. Secondary mouse and rabbit HRP-conjugated antibodies were from Amersham. Protein signal was detected using the ECL Plus kit (Amersham). For flow cytometry, cells were stained as previously described^33, using the following fluorescent-conjugated antibodies: CD44 (BD Biosciences), CD24 (BD Biosciences), CD326 (ESA, Biolegend), Annexin V (Invitrogen). For immunofluorescence microscopy, cells were fixed in 2% PFA for 10 min, permeabilized with 1% Triton X in PBS for 5 min, and incubated with primary antibodies in 0.5% Triton X, 1% FBS in PBS for 30 min at RT. Antibodies were: CK18 (Santa Cruz, mouse monoclonal, 1:100) and CK14 (Millipore, mouse monoclonal, 1:100). After washing the cells were stained sequentially with AlexaFluor647-conjugated secondary antibody (Invitrogen, 1:200) and DAPI (Sigma, 1:5000). For immunohistochemistry, BPLER tumor sections were prepared from paraffin-embedded tissues, deparaffinized and treated with 10% citrate buffer for 15 min. Staining was performed using a BIOGENEX IHC DAB kit (Biogenex) following the manufacturer's protocol. Primary antibodies were: CK14 (Millipore, mouse monoclonal, 1:100), CK5 (Millipore, mouse monoclonal, 1:100), HH3 (Cell Signaling, rabbit polyclonal, 1:100), ER (Abcam, mouse monoclonal, 1:100), Vimentin (Invitrogen, mouse monoclonal 1:100), Ki67 (Millipore, mouse monoclonal, 1:100).

[4] = tested on: BPE, HMLER and BPLER cells; test: Cell cycle distribution (propidium iodide DNA staining); settings: BPE, HMLER and BPLER, 24 hours
[5] = tested on: BPLER cells; test: Genome-wide siRNA lethality screen (primary screen), CellTiterGlo viability; type: cell-based, human; settings: for MAD BPLER / Fold BPLER: siRNA pool against the gene; for MAD BPLER: MAD score of viability in BPLER cells; for Fold BPLER: fold viability in BPLER cells
[6] = tested on: HMLER cells; test: as above; type: cell-based, human; settings: for Fold_HMLER / MAD_HMLER: primary screen, HMLER cells; for MAD_HMLER: MAD score; for MAD HMLER: MAD score of viability in HMLER cells; for Fold HMLER: fold viability in HMLER cells
[7] = tested on: BPLER cells; test: Secondary (cherry-pick) screen with the 4 individual siRNAs of each pool; settings: for Cherry_Score: secondary cherry-pick screen, 4 individual siRNAs of each pool
[8] = ratio of Fold_BPLER to Fold_HMLER
[9] = ratio of fold viability BPLER/HMLER
[10] = siRNA pool against the gene, fold viability
[11] = secondary screen with the 4 individual siRNAs of each pool

`COc1ccc([C@@H]2CC(=O)c3c(O)cc(O)cc3O2)cc1O` [Hesperetin] was tested, and the “relative viability of BPLER and HMLER cells” value (“relative viability” for short) [1] was “not active”.

For `NC(N)=NOCC[C@H](N)C(=O)O` [L-cavananine], the “relative viability” value [1] was “not active”.

In the case of `O=C(CCCCCCC(=O)Nc1ccccc1)NO` [Vorinostat, N′-hydroxy-N-phenyl-octanediamide], the “sensitivity of BPLER relative to HMLER cells (viability)” value [1] is reported as “selectively lethal for BPLER compared to HMLER” and the BPE viability [2] is reported as “no effect on BPE viability”.

`COC(=O)Nc1nc2ccc(C(=O)c3cccs3)cc2[nH]1` [nocodazole] was tested, and the “activation of apoptosis by mitotic arrest” value [3] was “sufficient to activate apoptosis in BPLER cells” and the mitotic arrest [4] was “underwent mitotic arrest”.

With `COc1cccc2c1C(=O)c1c(O)c3c(c(O)c1C2=O)C[C@@](O)(C(=O)CO)C[C@@H]3O[C@H]1C[C@H](N)[C@H](O)[C@H](C)O1` [doxorubicin] the “sensitivity of BPLER relative to HMLER cells (viability)” value [1] was “responded similarly”.

`O=C(O)C(=O)CBr` [BRPA, 3-bromo-pyruvic acid] was tested, and the “sensitivity of BPLER relative to HMLER cells (viability)” value [1] was “more sensitive”.

In the case of `CC(=O)N(O)CCCCCNC(=O)CCC(=O)N(O)CCCCCNC(=O)CCC(=O)N(O)CCCCCN` [Deferoxamine], the “relative viability” value [1] is reported as “not active”.

With `COc1ccc2cc(CCC(C)=O)ccc2c1` [Nabumetone] the “relative viability” value [1] was “not active”.

B1: NM_194324 (nucleic acid, listed as Homo sapiens)
DNA: AGCACTGCAGGGCTCTGGGCGGGAAGGCTAACCTGGTGCGGAGCCAGCCTGGGTCTCAGCCCCGCGTACGGCCTTTCACGAGTCTTCAAGCCTTCAGGCTTTCTTCTAGTCAAGATGAGTGATAAACCAGACTTGTCGGAAGTGGAGAAGTTTGACAGGTCAAAACTGAAGAAAACTAATACTGAAGAAAAAAATACTCTTCCCTCAAAGGAAACTATCCAGCAGGAGAAAGAGTGTGTTCAAACATCATAAAATGGGGATCTCCTCCAAAGAGCAGATTTCAGCATTGCCTGACAGTCTTGGTTTTAGGCTTGTTTTTTTGTAAACCTGTGTGTTTGTAGAGATTTCAGACATCTTCTGATTTCTTCTCACCTATATTCCCTGGTTAAGAGGTCAGGGGTAGTGAATGTTTCCTTAAGTTCCTTTTTAAACTTCCCATTGGTATGTAAATTCCAAATGGCAGATGCTGTCAATAACCTTGCCATGGATGACCTTTGTGTAGGTAGTCCTTGCACCTCATGCAGGATAAGCCAATTTTAACTTTCTACAATGGGTGCCTCAATAGTTTCATAATCTTCATGAAGTTGCATCCTTTGGCAGCTTCTTACAGTTTATTTTCACTTCCAATGTAGCAATAAAATAATAAATATAATCGTTGTTGTCTGAAAAAAAAAAAAAAAAAA
With B1 the Ratio ([5]; R, BPLER versus HMLER, primary screen) was 0.74, the Fold_HMLER ([6]; siRNA pool) was 0.87 and the “Cherry Score” value ([7]; validation screen with individual siRNAs of each pool) was 1.

B2: TMEM14B (nucleic acid, listed as Homo sapiens)
DNA: TTTCTCCCCGCCCTGCCGCGGCCCCGGGGCGCAGCGCGCACGCAATCGCGTTTCCGGAGAGACCTGGCTGCTGTGTCCCGCGGCTTGCGCTCCGTAGTGGACTCCGCGGGCCTTCGGCAGATGCAGGCCTGGGGTAGTCTCCTTTCTGGACTGAGAAGAGAAGAATGGAGAAGCCCCTCTTCCCATTAGTGCCTTTGCATTGGTTTGGCTTTGGCTACACAGCACTGGTTGTTTCTGGTGGGATCGTTGGCTATGTAAAAACAGGCAGCGTGCCGTCCCTGGCTGCAGGGCTGCTCTTCGGCAGTCTAGCCGGCCTGGGTGCTTACCAGCTGTATCAGGATCCAAGGAACGTTTGGGGTTTCCTAGCCGCTACATCTGTTACTTTTGTTGGTGTTATGGGAATGAGATCCTACTACTATGGAAAATTCATGCCTGTAGGTTTAATTGCAGGTGCCAGTTTGCTGATGGCCGCCAAAGTTGGAGTTCGTATGTTGATGACATCTGATTAGCAGAAGTCATGTTCCAGCTTGGACTCATGAAGGATTAAAAATCTGCATCTTCCACTATTTTCAATGTATTAAGAGAAATAAGTGCAGCATTTTTGCATCTGACATTTTACCTAAAAAAAAAAAGACACCAAATTTGGCGGAGGGGTGGAAAATCAGTTGTTACCATTATAACCCTACAGAGGTGGTGAGCATGTAACATGAGCTTATTGAGACCATCATAGAGATCGATTCTTGTATATTGATTTTATCTCTTTCTGTATCTATAGGTAAATCTCAAGGGTAAAATGTTAGGTGTTGACATTGAGAACCCTGAAACCCCATTCCCTGCTCAGAGGAACAGTGTGAAAAAAAATCTCTTGAGAGATTTAGAATATCTTTTCTTTTGCTCATCTTAGACCACAGACTGACTTTGAAATTATGTTAAGTGAAATATCAATGAAAATAAAGTTTACTATAAATAATAAAAAAAAAAAAAAAAAA
B2 was tested, and the “Ratio BPLER/HMLER” value [5, 8] was 0.71, the “Ratio BPLER/HMLER” value [5, 9] was 0.71 and the “MAD BPLER” value [5] was −1.99. For the same molecule, the “Fold BPLER” value [5] was 0.636, the MAD_HMLER ([6]; siRNA pool against the gene) was −0.56 and the Fold_HMLER [6, 10] was 0.90. For the same molecule, the “MAD HMLER” value ([6]; siRNA pool against the gene) was −0.56, the “Fold HMLER” value ([6]; siRNA pool against the gene) was 0.90 and the Cherry_Score [7] was 1. The “Cherry Score” value [7, 11] was 1.

B3: TMED3 (nucleic acid, listed as Homo sapiens)
DNA: ATCCCCTTACATCCTCCTAGGACCCGGTCGGTAGTCGTCGCCCCAGCCCGCCGGGGGCGCAGCGCCCGAGCCGCGGCCCTCGAGACGGGACCGAGAGCATCATGGGCAGCACTGTCCCGCGCTCCGCCTCCGTGCTGCTTCTGCTGCTGCTCCTGCGCCGGGCCGAGCAGCCCTGCGGGGCCGAGCTCACCTTCGAGCTGCCGGACAACGCCAAGCAGTGCTTCCACGAGGAGGTGGAGCAGGGCGTGAAGTTCTCCCTGGATTACCAGGTCATCACTGGAGGCCACTACGATGTTGACTGCTATGTAGAGGACCCCCAGGGGAACACCATCTACAGAGAAACGAAGAAGCAGTACGACAGCTTCACGTACCGGGCTGAAGTCAAGGGCGTTTATCAGTTTTGCTTCAGTAATGAGTTTTCCACCTTCTCTCACAAGACCGTCTACTTTGACTTTCAAGTGGGCGATGAGCCTCCCATTCTCCCAGACATGGGGAACAGGGTCACAGCTCTCACCCAGATGGAGTCCGCCTGCGTGACCATCCATGAGGCTCTGAAAACGGTGATTGACTCCCAGACGCATTACCGGCTGCGGGAGGCCCAGGACCGGGCCCGAGCGGAAGACCTTAATAGCCGAGTCTCTTACTGGTCTGTTGGCGAGACGATTGCCCTGTTCGTGGTCAGCTTCAGTCAGGTGCTACTGTTGAAAAGCTTCTTCACAGAAAAACGACCCATCAGCAGGGCAGTCCACTCCTAGCCCCGGCATCCTGCTCTAGGGCCCCTCATGCCCCAGGCTGGAGCAGCTCTCCTAGGTCACAGCCTGCTGGGCTGGGTCGCGTAGCCCAGGGTGGAGGCAGAACGATGCTGCTGTGGTAGCCCTTTGCCTTTCATGCCCATGCTTGATTCTTGCACCTCAGCAGCTGAAGGTCTCAGAGACCAGTAATCAGAAGGCATCCGACTGCATTAAGTGTGCAGCGCTGAAAAGACATTTACAACTAGGCCAGGGATTAGCCACTGTGGGAGGGTGGACAGGCAATGGTTCAGTGGCCTGGCTGTTGGCAGGAACTCCAAGTGCCCAGGCCTCTTGGGCAGCTTAGGGCCCTGCCTCTGTTTCATGATGCATGGGTCATTTGTCTTGGGTGTCCTATCCCATATGGAGAAGAAAGGGGCTCTAAGTTCTGGCTCTTCTTTCTTTGGGGTTCTCTGTACCTGAGGAAACCAGGCCCTGGGTGACTTTGCAGATCTGCTCACCCTCGGTGAGCAACAGTGTCAGCCATGCAAGCAGGACAGAATGGTGACTGGGTGCCCTTGGTGAGCTGTGTATTTCCTAGGAGGTAGAAAACTGTGGGAAACTGTGGCTAATAAAAACTAAGTGTGAGCGTCCTGGAGAAAAAAAAAAAAAAAAAAAAAAAAAAAAAAAAAAAAAAAAAAAAAAAA
With B3 the “Ratio BPLER/HMLER” value [5, 8] was 0.68, the “Ratio BPLER/HMLER” value [5, 9] was 0.68 and the “MAD BPLER” value [5] was −2.93. The “Fold BPLER” value [5] was 0.537, the MAD_HMLER ([6]; siRNA pool against the gene) was −1.28 and the Fold_HMLER [6, 10] was 0.80. The “MAD HMLER” value ([6]; siRNA pool against the gene) was −1.28, the “Fold HMLER” value ([6]; siRNA pool against the gene) was 0.80 and the Cherry_Score [7] was 2. The “Cherry Score” value [7, 11] was 2.
